# Measurements as given in paper PMC11487604, “Selective, Intrinsically Fluorescent Trk Modulating Probes” (ACS Chemical Neuroscience, 2024).
# *1 amine or outer side, *2 acyl side, *3 side chain or, on linkers, in order; H or OH if unused. Where a SMILES comes first, the peptide text is derived from it. Bridges are numbered along the chain shown (N, C = ends). Where no end group is shown, it is not given here. sulfonated dichloro‑BODIPY dye = Sulfonated dichloro-BODIPY dye that cyclises the two flanking Cys through two SNAr reactions; sulfonated dichloro‑BODIPY = sulfonated dichloro-BODIPY dye attached to the two flanking Cys by SNAr reactions; X1 = COc1ccc(C2=C3C=C(S(=O)(=O)O)C([*:2])=[N+]3[B-](F)(F)n3c2cc(S(=O)(=O)O)c3[*:1])cc1
# B1: cyclo-organopeptide 5c(i) (peptide)
# peptide: CDIRGC
# modifications: linker 1-6 via sulfonated dichloro‑BODIPY dye
# notes: flanking Cys of the CX1X2X3X4C-peptide; also called NT-3 loop (i) mimic; source: synthetic peptide (Fmoc SPPS), cyclised onto BODIPY, preparative HPLC
# B2: cyclo-organopeptide 5c(ii) (peptide)
# peptide: CTQNSC
# modifications: linker 1-6 via sulfonated dichloro‑BODIPY dye
# notes: flanking Cys of the CX1X2X3X4C-peptide; also called NT-3 loop (ii) mimic; source: synthetic peptide (Fmoc SPPS), cyclised onto BODIPY, preparative HPLC
# Key:
# [1] = molecular target: TrkB-expressing cells (HEK+B) (UniProt Q16620); assay: Cell survival assay in serum-free media, TrkB-expressing cells (HEK+B); format: cell-based; conditions: Figure 8 summary
# Experimental: Loop mimics 5 were screened in cell survival assays to evaluate their efficacy in stimulating Trk receptors (Figure 2). Mimics were assayed for the ability to rescue cells from cell death when incubated in serum-free media (SFM) in the absence of NTs (a test for “agonism”) or in the presence of a suboptimal NT concentration (a test for NT “modulation”). Simultaneously, these assays may confirm test mimics are not cytotoxic at lower doses (though cytotoxicity assays were also performed up to higher doses, Figure S1). […] All the test compounds were screened at 50 μM concentrations initially, and then, dose response curves were measured for the hits (Table 1 and Figure 3).
# We were forced to use transfectants in different cell lines (HeLa, HEK-293, NIH-3T3 expressing TrkA, B, and C, respectively) due to difficulties in obtaining transfected cells derived from a single wild type; however, none of the cells used express TrkA-C prior to transfection. Throughout this paper, HeLa cells are denoted as “HeLa”, and their TrkA transfectants are “HeLa+A”. Similarly, HEK-293 cells are “HEK”; their TrkB transfectants are HEK+B. NIH-3T3 cells are “NIH”, and their TrkC transfectants are “NIH+C”.
# Cells were seeded at a density of 2 × 10^3 cells/well in complete media in 96-well plates and incubated for 24 h to allow cells to adhere. Cells were washed with DPBS, and then, media were swapped for serum-free media of the same type as the complete media. Cells were then treated with 50 μM compound either alone or in conjunction with suboptimal neurotrophin corresponding to the Trk receptor expressed for 48 h. Cells were washed with DPBS buffer twice and detached from the plate with 50 μL of trypsin for 3 min at 37 °C. Trypsinization was quenched with 100 μL of complete media. Cells were suspended and live cells counted using flow cytometry (CytoFLEX LX). Cell survival was normalized from cell count (CC) readings relative to optimal neurotrophin (NT = 100%) and DMSO (0%) utilizing GraphPad Prism 10.2, followed by statistical analysis via one-way ANOVA and Dunnett’s t test compared to the DMSO control. Dose response versions of this assay were conducted following the same procedure, but the data was analyzed in GraphPad Prism 10.2 using the nonlinear fit: {agonist} vs response – variable slope (four parameters) function.
# [2] = molecular target: TrkA-expressing cells (HeLa+A) (UniProt P04629); assay: Cell survival assay in serum-free media, TrkA-expressing cells (HeLa+A); format: cell-based; conditions: Figure 8 summary
# Experimental: Cells were seeded at a density of 2 × 10^3 cells/well in complete media in 96-well plates and incubated for 24 h to allow cells to adhere. Cells were washed with DPBS, and then, media were swapped for serum-free media of the same type as the complete media. […] Cells were suspended and live cells counted using flow cytometry (CytoFLEX LX).
# [3] = molecular target: TrkC-expressing cells (NIH+C) (UniProt Q16288); assay: Cell survival assay in serum-free media, TrkC-expressing cells (NIH+C); format: cell-based; conditions: Figure 8 summary
# Experimental: Loop mimics 5 were screened in cell survival assays to evaluate their efficacy in stimulating Trk receptors (Figure 2). Mimics were assayed for the ability to rescue cells from cell death when incubated in serum-free media (SFM) in the absence of NTs (a test for “agonism”) or in the presence of a suboptimal NT concentration (a test for NT “modulation”). Simultaneously, these assays may confirm test mimics are not cytotoxic at lower doses (though cytotoxicity assays were also performed up to higher doses, Figure S1). […] All the test compounds were screened at 50 μM concentrations initially, and then, dose response curves were measured for the hits (Table 1 and Figure 3). […]
# Cells were seeded at a density of 2 × 10^3 cells/well in complete media in 96-well plates and incubated for 24 h to allow cells to adhere. […] Cells were suspended and live cells counted using flow cytometry (CytoFLEX LX). Cell survival was normalized from cell count (CC) readings relative to optimal neurotrophin (NT = 100%) and DMSO (0%) utilizing GraphPad Prism 10.2, followed by statistical analysis via one-way ANOVA and Dunnett’s t test compared to the DMSO control. Dose response versions of this assay were conducted following the same procedure, but the data was analyzed in GraphPad Prism 10.2 using the nonlinear fit: {agonist} vs response – variable slope (four parameters) function.
# [4] = molecular target: T1, TrkB (on HEK293-TrkB transfectants) (UniProt Q16620 32-822); assay: cell-surface fluorescence binding on live cells (plate reader); serial dilution of the intrinsically fluorescent compound in serum-free media on adherent Trk-transfected cells, 2.5 h, washed with DPBS, dissolved in 1% SDS, ex 540/25 nm, em 620/40 nm; fluorescence of the Trk-negative parent cells subtracted; one site - specific binding fit; conditions: one partner purified
# T1 construct: TrkB receptor expressed on transfected HEK-293 cells; also called HEK+B; HEK-TrkB; source: HEK-293, transfected (HEK293-TrkB), on live cells
# [5] = molecular target: T1, TrkB (on HEK293-TrkB transfectants); assay: cell-based or functional assay
# [6] = molecular target: T2, TrkA (on HeLa-TrkA transfectants) (UniProt P04629 33-796); assay: cell-surface fluorescence binding on live cells (plate reader); serial dilution of the intrinsically fluorescent compound in serum-free media on adherent Trk-transfected cells, 2.5 h, washed with DPBS, dissolved in 1% SDS, ex 540/25 nm, em 620/40 nm; fluorescence of the Trk-negative parent cells subtracted; one site - specific binding fit; conditions: one partner purified
# T2 construct: TrkA receptor expressed on transfected HeLa cells; also called HeLa+A; source: HeLa, transfected (HeLa-TrkA), on live cells
# [7] = molecular target: T2, TrkA (on HeLa-TrkA transfectants); assay: cell-based or functional assay
# [8] = molecular target: T3, TrkC (on NIH3T3-TrkC transfectants) (UniProt Q16288 32-839); assay: cell-surface fluorescence binding on live cells (plate reader); serial dilution of the intrinsically fluorescent compound in serum-free media on adherent Trk-transfected cells, 2.5 h, washed with DPBS, dissolved in 1% SDS, ex 540/25 nm, em 620/40 nm; fluorescence of the Trk-negative parent cells subtracted; one site - specific binding fit; conditions: one partner purified
# T3 construct: TrkC receptor expressed on transfected NIH-3T3 cells; also called NIH+C; NIH-TrkC; source: NIH-3T3, transfected (NIH3T3-TrkC), on live cells
# [9] = molecular target: T3, TrkC (on NIH3T3-TrkC transfectants); assay: cell-based or functional assay
# [10] = molecular target: T3, TrkC (on NIH3T3-TrkC transfectants); assay: cell-based or functional assay; remark: listed apart in the source
# [11] = molecular target: T2, TrkA (on HeLa-TrkA transfectants); assay: cell-based or functional assay; remark: listed apart in the source
# T1 sequence (Q16620 32-822): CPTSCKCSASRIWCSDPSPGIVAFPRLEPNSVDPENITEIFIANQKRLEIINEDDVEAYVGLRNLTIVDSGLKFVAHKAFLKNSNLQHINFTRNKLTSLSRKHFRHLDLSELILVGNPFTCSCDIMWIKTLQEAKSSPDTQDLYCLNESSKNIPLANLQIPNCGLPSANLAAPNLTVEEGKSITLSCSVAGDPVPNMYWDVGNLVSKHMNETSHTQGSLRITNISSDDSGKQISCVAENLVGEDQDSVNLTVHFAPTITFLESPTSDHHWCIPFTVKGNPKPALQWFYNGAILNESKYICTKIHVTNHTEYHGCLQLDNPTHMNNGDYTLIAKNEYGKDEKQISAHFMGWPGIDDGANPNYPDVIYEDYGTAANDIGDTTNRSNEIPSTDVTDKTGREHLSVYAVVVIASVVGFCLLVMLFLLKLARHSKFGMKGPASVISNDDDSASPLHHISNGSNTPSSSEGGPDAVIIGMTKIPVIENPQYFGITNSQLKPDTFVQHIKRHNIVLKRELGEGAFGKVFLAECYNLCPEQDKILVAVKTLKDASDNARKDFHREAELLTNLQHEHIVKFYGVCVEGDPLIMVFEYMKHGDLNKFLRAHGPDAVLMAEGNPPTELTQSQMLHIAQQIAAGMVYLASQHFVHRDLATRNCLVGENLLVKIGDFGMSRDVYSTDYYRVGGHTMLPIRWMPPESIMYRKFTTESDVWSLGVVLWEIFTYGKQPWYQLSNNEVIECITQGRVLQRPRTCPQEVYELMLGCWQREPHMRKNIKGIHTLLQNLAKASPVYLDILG
# T3 sequence (Q16288 32-839): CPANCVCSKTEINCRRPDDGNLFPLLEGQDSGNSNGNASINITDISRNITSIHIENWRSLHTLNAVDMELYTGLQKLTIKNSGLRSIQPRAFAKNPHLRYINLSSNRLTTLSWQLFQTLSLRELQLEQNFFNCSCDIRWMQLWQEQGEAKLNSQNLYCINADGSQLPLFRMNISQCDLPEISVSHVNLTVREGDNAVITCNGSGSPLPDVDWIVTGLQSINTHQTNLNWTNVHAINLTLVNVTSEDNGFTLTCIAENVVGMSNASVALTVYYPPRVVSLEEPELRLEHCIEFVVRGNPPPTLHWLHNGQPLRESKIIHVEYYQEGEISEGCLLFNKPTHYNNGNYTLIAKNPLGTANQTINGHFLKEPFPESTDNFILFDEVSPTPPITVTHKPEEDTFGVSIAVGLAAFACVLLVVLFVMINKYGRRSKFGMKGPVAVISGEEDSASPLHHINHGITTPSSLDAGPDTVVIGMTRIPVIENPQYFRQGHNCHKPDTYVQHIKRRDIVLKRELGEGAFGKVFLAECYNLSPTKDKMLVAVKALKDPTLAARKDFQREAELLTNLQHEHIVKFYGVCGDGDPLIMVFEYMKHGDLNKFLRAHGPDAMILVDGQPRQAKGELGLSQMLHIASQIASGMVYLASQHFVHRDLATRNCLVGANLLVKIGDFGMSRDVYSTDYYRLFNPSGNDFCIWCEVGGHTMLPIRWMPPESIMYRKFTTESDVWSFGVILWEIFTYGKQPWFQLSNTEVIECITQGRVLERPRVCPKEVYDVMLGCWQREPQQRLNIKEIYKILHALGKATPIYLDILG
# T2 sequence (P04629 33-796): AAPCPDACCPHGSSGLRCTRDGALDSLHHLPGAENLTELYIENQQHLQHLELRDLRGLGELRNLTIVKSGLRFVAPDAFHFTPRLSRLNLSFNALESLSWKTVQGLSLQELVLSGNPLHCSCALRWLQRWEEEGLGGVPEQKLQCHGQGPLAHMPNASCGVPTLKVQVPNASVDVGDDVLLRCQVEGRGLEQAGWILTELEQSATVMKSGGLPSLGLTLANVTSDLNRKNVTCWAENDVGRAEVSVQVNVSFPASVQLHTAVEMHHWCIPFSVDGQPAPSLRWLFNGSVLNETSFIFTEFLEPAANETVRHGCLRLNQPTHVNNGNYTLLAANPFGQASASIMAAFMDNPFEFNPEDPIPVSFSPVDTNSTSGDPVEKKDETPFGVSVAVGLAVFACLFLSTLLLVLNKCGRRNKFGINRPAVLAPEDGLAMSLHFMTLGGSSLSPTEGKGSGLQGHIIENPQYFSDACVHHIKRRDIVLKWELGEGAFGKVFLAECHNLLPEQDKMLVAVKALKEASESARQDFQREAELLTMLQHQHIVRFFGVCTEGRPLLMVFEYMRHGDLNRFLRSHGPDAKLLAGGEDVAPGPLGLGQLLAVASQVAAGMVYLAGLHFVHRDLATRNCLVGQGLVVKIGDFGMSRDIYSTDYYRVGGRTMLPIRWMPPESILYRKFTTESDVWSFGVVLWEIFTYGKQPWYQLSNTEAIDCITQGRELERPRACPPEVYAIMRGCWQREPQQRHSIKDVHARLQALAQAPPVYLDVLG
# Chain of TrkB-expressing cells (HEK+B) (Q16620 32-822): as the sequence (Q16620 32-822) above
# Chain of TrkC-expressing cells (NIH+C) (Q16288 32-839): as the sequence (Q16288 32-839) above
# Chain of TrkA-expressing cells (HeLa+A) (P04629 33-796): as the sequence (P04629 33-796) above
molecule,measurement,setting,value
COc1ccc(C2=C3C=C(S(=O)(=O)O)C4=[N+]3[B-](F)(F)n3c2cc(S(=O)(=O)O)c3SC[C@H](NC(C)=O)C(=O)N[C@@H](CC(=O)O)C(=O)N[C@@H](CCSC)C(=O)N[C@@H](CO)C(=O)NCC(=O)N[C@H](C(N)=O)CS4)cc1 [5b(i)] (Ac-CDMSGC-NH2; linker 1-6 via X1; N-terminus and C-terminus assumed),result (Trk activity assigned),[1],TrkB agonist
COc1ccc(C2=C3C=C(S(=O)(=O)O)C4=[N+]3[B-](F)(F)n3c2cc(S(=O)(=O)O)c3SC[C@H](NC(C)=O)C(=O)N[C@@H](CC(=O)O)C(=O)N[C@@H](CCC(=O)O)C(=O)N[C@@H](CCCCN)C(=O)N[C@@H](CCC(N)=O)C(=O)N[C@H](C(N)=O)CS4)cc1 [5a(iii)m] (Ac-CDEKQC-NH2; linker 1-6 via X1; N-terminus and C-terminus assumed),result (Trk activity assigned),[2],TrkA modulator
COc1ccc(C2=C3C=C(S(=O)(=O)O)C4=[N+]3[B-](F)(F)n3c2cc(S(=O)(=O)O)c3SC[C@H](NC(C)=O)C(=O)N[C@@H](C(C)C)C(=O)N[C@@H](CO)C(=O)N[C@@H](CCCCN)C(=O)NCC(=O)N[C@H](C(N)=O)CS4)cc1 [5b(ii)] (Ac-CVSKGC-NH2; linker 1-6 via X1; N-terminus and C-terminus assumed),result (Trk activity assigned),[1],TrkB agonist
COc1ccc(C2=C3C=C(S(=O)(=O)O)C4=[N+]3[B-](F)(F)n3c2cc(S(=O)(=O)O)c3SC[C@H](NC(C)=O)C(=O)N[C@@H](CCC(=O)O)C(=O)N[C@@H](CC(N)=O)C(=O)N[C@@H](CC(N)=O)C(=O)N[C@@H](CCCCN)C(=O)N[C@H](C(N)=O)CS4)cc1 [5c(iii)] (Ac-CENNKC-NH2; linker 1-6 via X1; N-terminus and C-terminus assumed),result (Trk activity assigned),[3],TrkC agonist
CVSKGC (linker 1-6 via sulfonated dichloro‑BODIPY dye) [cyclo-organopeptide 5b(ii)],Kd,[4],115 ± 66 nM
same,"EC50 of survival of HEK293-TrkB cells in serum-free media, with suboptimal neurotrophin (0.6 nM BDNF)",[5],2800 nM
same,"EC50 of survival of HEK293-TrkB cells in serum-free media, without NT",[5],900 nM
CDEKQC (linker 1-6 via sulfonated dichloro‑BODIPY) [cyclo-organopeptide 5a(iii)m],Kd,[6],120 ± 3 nM
same,"EC50 of survival of HeLa-TrkA cells in serum-free media, with suboptimal neurotrophin (0.2 nM NGF)",[7],500 nM
same,"EC50 of survival of HeLa-TrkA cells in serum-free media, without NT",[7],2400 nM
CENNKC (linker 1-6 via sulfonated dichloro‑BODIPY dye) [cyclo-organopeptide 5c(iii)],Kd,[8],91 ± 4 nM
same,"EC50 of survival of NIH3T3-TrkC cells in serum-free media, with suboptimal neurotrophin (0.2 nM NT-3)",[9],900 nM
same,"EC50 of survival of NIH3T3-TrkC cells in serum-free media, without NT",[9],800 nM
B1,Kd,[8],97 ± 4 nM
same,Kd,[4],43 ± 2 nM
same,"EC50 of survival of HEK293-TrkB cells in serum-free media, with suboptimal neurotrophin (0.6 nM BDNF)",[5],2200 nM
same,"EC50 of survival of HEK293-TrkB cells in serum-free media, without NT",[5],100 nM
B2,Kd,[6],91 ± 2 nM
same,"EC50 of survival of HeLa-TrkA cells in serum-free media, with suboptimal neurotrophin (0.2 nM NGF)",[7],300 nM
same,"EC50 of survival of HeLa-TrkA cells in serum-free media, without NT",[7],4500 nM
same,IC50 of the decrease of pAKT signalling (ELFI) in NIH+C cells when competed with 10 ng/mL NT; pair blocked: NT-3 and TrkC,[10],7 μM
same,IC50 of the decrease of pMAPK signalling (ELFI) in NIH+C cells when competed with 10 ng/mL NT; pair blocked: NT-3 and TrkC,[10],35 μM
same,"IC50 of the decrease of pAKT signalling (ELFI) in PC12 cells (rat, endogenous TrkA) when competed with 10 ng/mL NT; pair blocked: NGF and TrkA",[11],7 μM
same,"IC50 of the decrease of pMAPK signalling (ELFI) in PC12 cells (rat, endogenous TrkA) when competed with 10 ng/mL NT; pair blocked: NGF and TrkA",[11],7 μM
